Results taken from the supplement of paper PMC10567573.

B1: BCL2L13 (parent)
chain: QSLDQEILLKVKTEIEEELKSLDK

Variants of: B1
Assay: protein stability index of a GFP-peptide fusion (GPS, HEK-293T) (PSI 1-6); higher = more stable
Settings: c terminus: a fixed tail appended
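Also: lentivirally expressed fusions sorted by FACS into six bins by GFP to DsRed ratio, PSI derived from sequencing read proportions per bin multiplied by bin number.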

Going from QSLDQEILLKVKTEIEEELKILDK [S21I] to QSLDQEILLKVKTEIEEELKKLDK [S21K], the protein stability index rises from 4.77 to 4.83.

Compared with QSLDQEILLKVKTEIEEELKDLDK [S21D], QSLDQEILLKVKTEIEEELKWLDK [S21W] is lower in protein stability index: 5.47 for the first, 3.57 for the second.

Compared with QSLDQEILLKVKTEIEEELKALDK [S21A], QSLDQEILLKVKTEIEEELKCLDK [S21C] is higher in protein stability index: 4.83 for the first, 4.98 for the second.

First: QSLDQEILLKVKTEIEEELKYLDK [S21Y]
Second: QSLDQEILLKVKTEIEEELKPLDK [S21P]
The protein stability index of the first is lower: 4.25 for the first, 4.97 for the second.

First: QSLDQEILLKVKTEIEEELKHLDK [S21H]
Second: QSLDQEILLKVKTEIEEELKNLDK [S21N]
The protein stability index of the first is lower: 4.44 for the first, 5.38 for the second.

Going from QSLDQEILLKVKTEIEEELKVLDK [S21V] to QSLDQEILLKVKTEIEEELKTLDK [S21T], the protein stability index falls from 4.73 to 4.59.

Going from QSLDQEILLKVKTEIEEELKFLDK [S21F] to QSLDQEILLKVKTEIEEELKGLDK [S21G], the protein stability index rises from 4.72 to 5.35.

Going from QSLDQEILLKVKTEIEEELKRLDK [S21R] to QSLDQEILLKVKTEIEEELKQLDK [S21Q], the protein stability index rises from 4.42 to 4.86.

Compared with QSLDQEILLKVKTEIEEELKMLDK [S21M], QSLDQEILLKVKTEIEEELKLLDK [S21L] is lower in protein stability index: 4.67 for the first, 4.46 for the second.

Going from QSLDQEILLKVKTEIEEELKSRDK [L22R] to QSLDQEILLKVKTEIEEELKSEDK [L22E], the protein stability index falls from 4.67 to 4.58.

First: QSLDQEILLKVKTEIEEELKSCDK [L22C]
Second: QSLDQEILLKVKTEIEEELKSVDK [L22V]
The protein stability index of the first is higher: 5.34 for the first, 5.2 for the second.

Compared with QSLDQEILLKVKTEIEEELKSNDK [L22N], QSLDQEILLKVKTEIEEELKSADK [L22A] is lower in protein stability index: 5.16 for the first, 4.81 for the second.

Compared with QSLDQEILLKVKTEIEEELKSKDK [L22K], QSLDQEILLKVKTEIEEELKSMDK [L22M] is lower in protein stability index: 5.47 for the first, 5.12 for the second.

Compared with QSLDQEILLKVKTEIEEELKSSDK [L22S], QSLDQEILLKVKTEIEEELKSIDK [L22I] is lower in protein stability index: 5.41 for the first, 4.49 for the second.

Compared with QSLDQEILLKVKTEIEEELKSFDK [L22F], QSLDQEILLKVKTEIEEELKSDDK [L22D] is higher in protein stability index: 5.37 for the first, 5.74 for the second.

Compared with QSLDQEILLKVKTEIEEELKSQDK [L22Q], QSLDQEILLKVKTEIEEELKSYDK [L22Y] is lower in protein stability index: 5.3 for the first, 5.02 for the second.

Compared with QSLDQEILLKVKTEIEEELKSPDK [L22P], QSLDQEILLKVKTEIEEELKSHDK [L22H] is lower in protein stability index: 5.67 for the first, 5.47 for the second.

First: QSLDQEILLKVKTEIEEELKSTDK [L22T]
Second: QSLDQEILLKVKTEIEEELKSWDK [L22W]
The protein stability index of the first is higher: 5.13 for the first, 4.34 for the second.

Going from QSLDQEILLKVKTEIEEELKSLDW [K24W] to QSLDQEILLKVKTEIEEELKSLDT [K24T], the protein stability index falls from 4.94 to 4.79.

Going from QSLDQEILLKVKTEIEEELKSLDR [K24R] to QSLDQEILLKVKTEIEEELKSLDQ [K24Q], the protein stability index rises from 4.53 to 4.73.

First: QSLDQEILLKVKTEIEEELKSLDA [K24A]
Second: QSLDQEILLKVKTEIEEELKSLDI [K24I]
The protein stability index of the first is higher: 5.1 for the first, 4.58 for the second.

Going from QSLDQEILLKVKTEIEEELKSLDC [K24C] to QSLDQEILLKVKTEIEEELKSLDF [K24F], the protein stability index rises from 4.53 to 4.89.

First: QSLDQEILLKVKTEIEEELKSLDP [K24P]
Second: QSLDQEILLKVKTEIEEELKSLDE [K24E]
The protein stability index of the first is lower: 5.06 for the first, 5.74 for the second.

First: QSLDQEILLKVKTEIEEELKSLDL [K24L]
Second: QSLDQEILLKVKTEIEEELKSLDD [K24D]
The protein stability index of the first is lower: 4.71 for the first, 5.27 for the second.

Going from QSLDQEILLKVKTEIEEELKSLDV [K24V] to QSLDQEILLKVKTEIEEELKSLDG [K24G], the protein stability index rises from 4.71 to 5.12.

Going from QSLDQEILLKVKTEIEEELKSLDM [K24M] to QSLDQEILLKVKTEIEEELKSLDN [K24N], the protein stability index rises from 3.67 to 5.04.

Compared with QSLDQEILLKVKTEIEEELKSLDS [K24S], QSLDQEILLKVKTEIEEELKSLDY [K24Y] is lower in protein stability index: 4.9 for the first, 4.25 for the second.

Compared with QSLDQEILLKVKTEIEEELKSLDH [K24H], QSLDQEILLKVKTEIEEEYKSLDK [L19Y] is higher in protein stability index: 4.36 for the first, 5.05 for the second.

Compared with QSLDQEILLKVKTEIEEETKSLDK [L19T], QSLDQEILLKVKTEIEEESKSLDK [L19S] is lower in protein stability index: 5.48 for the first, 5 for the second.

Compared with QSLDQEILLKVKTEIEEEVKSLDK [L19V], QSLDQEILLKVKTEIEEEWKSLDK [L19W] is lower in protein stability index: 5.63 for the first, 4.46 for the second.

Going from QSLDQEILLKVKTEIEEELQSLDK [K20Q] to QSLDQEILLKVKTEIEEELLSLDK [K20L], the protein stability index falls from 4.63 to 4.56.

First: QSLDQEILLKVKTEIEEELCSLDK [K20C]
Second: QSLDQEILLKVKTEIEEELYSLDK [K20Y]
The protein stability index of the first is higher: 4.9 for the first, 4.3 for the second.

Compared with QSLDQEILLKVKTEIEEELWSLDK [K20W], QSLDQEILLKVKTEIEEELPSLDK [K20P] is higher in protein stability index: 4.91 for the first, 5.35 for the second.

First: QSLDQEILLKVKTEIEEELVSLDK [K20V]
Second: QSLDQEILLKVKTEIEEELSSLDK [K20S]
The protein stability index of the first is lower: 5.11 for the first, 5.33 for the second.

Compared with QSLDQEILLKVKTEIEEELRSLDK [K20R], QSLDQEILLKVKTEIEEELDSLDK [K20D] is lower in protein stability index: 5.18 for the first, 4.86 for the second.

Going from QSLDQEILLKVKTEIEEELESLDK [K20E] to QSLDQEILLKVKTEIEEELTSLDK [K20T], the protein stability index falls from 5.67 to 5.09.

QSLDQEILLKVKTEIEEELHSLDK [K20H] and QSLDQEILLKVKTEIEEELMSLDK [K20M] are the same in protein stability index: 4.48 for the first, 4.48 for the second.

First: QSLDQEILLKVKTEIEEELISLDK [K20I]
Second: QSLDQEILLKVKTEIEEELFSLDK [K20F]
The protein stability index of the first is higher: 4.56 for the first, 4.2 for the second.

Going from QSLDQEILLKVKTEIEEELNSLDK [K20N] to QSLDQEILLKVKTEIEEELASLDK [K20A], the protein stability index falls from 5.17 to 5.08.

First: QSLDQEILLKVKTEIEEELGSLDK [K20G]
Second: QSLDQEILLKVKTEIEEELKSLLK [D23L]
The protein stability index of the first is higher: 5.03 for the first, 2.2 for the second.

Compared with QSLDQEILLKVKTEIEEELKSLAK [D23A], QSLDQEILLKVKTEIEEELKSLGK [D23G] is higher in protein stability index: 2.63 for the first, 4.41 for the second.

First: QSLDQEILLKVKTEIEEELKSLMK [D23M]
Second: QSLDQEILLKVKTEIEEELKSLTK [D23T]
The protein stability index of the first is lower: 2.33 for the first, 4.47 for the second.

First: QSLDQEILLKVKTEIEEELKSLFK [D23F]
Second: QSLDQEILLKVKTEIEEELKSLRK [D23R]
The protein stability index of the first is lower: 2.14 for the first, 3.78 for the second.

Going from QSLDQEILLKVKTEIEEELKSLPK [D23P] to QSLDQEILLKVKTEIEEELKSLKK [D23K], the protein stability index falls from 4.85 to 4.33.

Compared with QSLDQEILLKVKTEIEEELKSLIK [D23I], QSLDQEILLKVKTEIEEELKSLEK [D23E] is higher in protein stability index: 3.3 for the first, 4.29 for the second.

First: QSLDQEILLKVKTEIEEELKSLQK [D23Q]
Second: QSLDQEILLKVKTEIEEELKSLHK [D23H]
The protein stability index of the first is higher: 4.48 for the first, 3.7 for the second.

Going from QSLDQEILLKVKTEIEEELKSLNK [D23N] to QSLDQEILLKVKTEIEEELKSLCK [D23C], the protein stability index falls from 4.04 to 3.42.
